Assay results published in publication PMC10786891, “Massively parallel profiling of RNA-targeting CRISPR-Cas13d”.

T1: EsCas13d, nuclease-dead (Eubacterium siraeum, UniProt B0MS50, R295A;H300A;R849A;H854A)
T1 sequence: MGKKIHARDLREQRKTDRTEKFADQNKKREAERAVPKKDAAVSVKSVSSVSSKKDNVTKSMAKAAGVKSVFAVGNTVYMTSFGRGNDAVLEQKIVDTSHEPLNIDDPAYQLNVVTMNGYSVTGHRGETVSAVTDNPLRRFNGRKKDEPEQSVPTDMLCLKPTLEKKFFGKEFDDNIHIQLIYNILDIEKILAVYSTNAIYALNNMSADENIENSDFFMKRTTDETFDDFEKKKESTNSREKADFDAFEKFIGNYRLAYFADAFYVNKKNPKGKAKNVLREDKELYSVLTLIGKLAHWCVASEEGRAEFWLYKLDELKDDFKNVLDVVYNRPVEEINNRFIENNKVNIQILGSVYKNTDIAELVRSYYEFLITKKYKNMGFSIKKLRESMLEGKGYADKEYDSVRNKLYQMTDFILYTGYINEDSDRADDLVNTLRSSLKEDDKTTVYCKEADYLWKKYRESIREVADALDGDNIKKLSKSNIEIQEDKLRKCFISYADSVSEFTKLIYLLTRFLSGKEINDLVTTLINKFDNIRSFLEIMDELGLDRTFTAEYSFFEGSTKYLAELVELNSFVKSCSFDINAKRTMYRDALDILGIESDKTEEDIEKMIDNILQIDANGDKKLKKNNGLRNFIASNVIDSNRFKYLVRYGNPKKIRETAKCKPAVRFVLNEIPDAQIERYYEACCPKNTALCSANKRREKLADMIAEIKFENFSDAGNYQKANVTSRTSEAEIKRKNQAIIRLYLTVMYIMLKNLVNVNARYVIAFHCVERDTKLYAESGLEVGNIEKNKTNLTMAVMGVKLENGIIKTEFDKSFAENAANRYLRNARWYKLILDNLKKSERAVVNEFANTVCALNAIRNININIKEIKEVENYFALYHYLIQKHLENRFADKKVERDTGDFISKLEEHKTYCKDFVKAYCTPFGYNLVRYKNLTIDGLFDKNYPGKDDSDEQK

B1: target 1 insU 3' of 13,insG 3' of 4 (mixed)
RNA 1: CACCCGUGCAAAAAUGCAGGGGUCUAAAACUGAGCGGAUAACCUCUCUAUGG
RNA 2: GGGAAUGGAUCCACAUCUACGAAUUCGUACCAUAGAGAGUGUUAUCCGCGUCACCGAGAUCGGAAGAGCACACGU
B2: target 1 C6G,A18C (mixed)
RNA 1: CACCCGUGCAAAAAUGCAGGGGUCUAAAACUGAGCGGAUAACCUCUCUAUGG
RNA 2: GGGAAUGGAUCCACAUCUACGAAUUCGUACCAUCGAGAGGUUAUCGGCUCACCGAGAUCGGAAGAGCACACGU
B3: target 1 insU 3' of 6,insU 3' of 4 (mixed)
RNA 1: CACCCGUGCAAAAAUGCAGGGGUCUAAAACUGAGCGGAUAACCUCUCUAUGG
RNA 2: GGGAAUGGAUCCACAUCUACGAAUUCGUACCAUAGAGAGGUUAUCCUGCUUCACCGAGAUCGGAAGAGCACACGU
B4: target 1 G5A,G13C (mixed)
RNA 1: CACCCGUGCAAAAAUGCAGGGGUCUAAAACUGAGCGGAUAACCUCUCUAUGG
RNA 2: GGGAAUGGAUCCACAUCUACGAAUUCGUACCAUAGAGACGUUAUCCACUCACCGAGAUCGGAAGAGCACACGU
B5: target 1 insU 3' of 9,insC 3' of 5 (mixed)
RNA 1: CACCCGUGCAAAAAUGCAGGGGUCUAAAACUGAGCGGAUAACCUCUCUAUGG
RNA 2: GGGAAUGGAUCCACAUCUACGAAUUCGUACCAUAGAGAGGUUAUUCCGCCUCACCGAGAUCGGAAGAGCACACGU
B6: target 1 insC 3' of 12,insU 3' of 2 (mixed)
RNA 1: CACCCGUGCAAAAAUGCAGGGGUCUAAAACUGAGCGGAUAACCUCUCUAUGG
RNA 2: GGGAAUGGAUCCACAUCUACGAAUUCGUACCAUAGAGAGGCUUAUCCGCUCUACCGAGAUCGGAAGAGCACACGU
B7: target 1 C7G,U10G (mixed)
RNA 1: CACCCGUGCAAAAAUGCAGGGGUCUAAAACUGAGCGGAUAACCUCUCUAUGG
RNA 2: GGGAAUGGAUCCACAUCUACGAAUUCGUACCAUAGAGAGGUGAUGCGCUCACCGAGAUCGGAAGAGCACACGU
B8: target 1 insU 3' of 18,insU 3' of 6 (mixed)
RNA 1: CACCCGUGCAAAAAUGCAGGGGUCUAAAACUGAGCGGAUAACCUCUCUAUGG
RNA 2: GGGAAUGGAUCCACAUCUACGAAUUCGUACCAUAUGAGAGGUUAUCCUGCUCACCGAGAUCGGAAGAGCACACGU
B9: target 1 C2G,A9G (mixed)
RNA 1: CACCCGUGCAAAAAUGCAGGGGUCUAAAACUGAGCGGAUAACCUCUCUAUGG
RNA 2: GGGAAUGGAUCCACAUCUACGAAUUCGUACCAUAGAGAGGUUGUCCGCUGACCGAGAUCGGAAGAGCACACGU
B10: target 1 C4G,G12U (mixed)
RNA 1: CACCCGUGCAAAAAUGCAGGGGUCUAAAACUGAGCGGAUAACCUCUCUAUGG
RNA 2: GGGAAUGGAUCCACAUCUACGAAUUCGUACCAUAGAGAGUUUAUCCGGUCACCGAGAUCGGAAGAGCACACGU
B11: target 1 insG 3' of 19,insA 3' of 17 (mixed)
RNA 1: CACCCGUGCAAAAAUGCAGGGGUCUAAAACUGAGCGGAUAACCUCUCUAUGG
RNA 2: GGGAAUGGAUCCACAUCUACGAAUUCGUACCAUGAGAAGAGGUUAUCCGCUCACCGAGAUCGGAAGAGCACACGU
B12: target 1 insC 3' of 11,insU 3' of 1 (mixed)
RNA 1: CACCCGUGCAAAAAUGCAGGGGUCUAAAACUGAGCGGAUAACCUCUCUAUGG
RNA 2: GGGAAUGGAUCCACAUCUACGAAUUCGUACCAUAGAGAGGUCUAUCCGCUCAUCCGAGAUCGGAAGAGCACACGU
B13: target 1 A1G,C4A (mixed)
RNA 1: CACCCGUGCAAAAAUGCAGGGGUCUAAAACUGAGCGGAUAACCUCUCUAUGG
RNA 2: GGGAAUGGAUCCACAUCUACGAAUUCGUACCAUAGAGAGGUUAUCCGAUCGCCGAGAUCGGAAGAGCACACGU
B14: target 1 insC 3' of 11,insC 3' of 1 (mixed)
RNA 1: CACCCGUGCAAAAAUGCAGGGGUCUAAAACUGAGCGGAUAACCUCUCUAUGG
RNA 2: GGGAAUGGAUCCACAUCUACGAAUUCGUACCAUAGAGAGGUCUAUCCGCUCACCCGAGAUCGGAAGAGCACACGU
B15: target 1 U3A,U10A (mixed)
RNA 1: CACCCGUGCAAAAAUGCAGGGGUCUAAAACUGAGCGGAUAACCUCUCUAUGG
RNA 2: GGGAAUGGAUCCACAUCUACGAAUUCGUACCAUAGAGAGGUAAUCCGCACACCGAGAUCGGAAGAGCACACGU
B16: target 1 insG 3' of 11,insC 3' of 9 (mixed)
RNA 1: CACCCGUGCAAAAAUGCAGGGGUCUAAAACUGAGCGGAUAACCUCUCUAUGG
RNA 2: GGGAAUGGAUCCACAUCUACGAAUUCGUACCAUAGAGAGGUGUACUCCGCUCACCGAGAUCGGAAGAGCACACGU
B17: target 1 insC 3' of 11,insG 3' of 1 (mixed)
RNA 1: CACCCGUGCAAAAAUGCAGGGGUCUAAAACUGAGCGGAUAACCUCUCUAUGG
RNA 2: GGGAAUGGAUCCACAUCUACGAAUUCGUACCAUAGAGAGGUCUAUCCGCUCAGCCGAGAUCGGAAGAGCACACGU
B18: target 1 insU 3' of 17,insU 3' of 1 (mixed)
RNA 1: CACCCGUGCAAAAAUGCAGGGGUCUAAAACUGAGCGGAUAACCUCUCUAUGG
RNA 2: GGGAAUGGAUCCACAUCUACGAAUUCGUACCAUAGUAGAGGUUAUCCGCUCAUCCGAGAUCGGAAGAGCACACGU
B19: target 1 A14C,G15A (mixed)
RNA 1: CACCCGUGCAAAAAUGCAGGGGUCUAAAACUGAGCGGAUAACCUCUCUAUGG
RNA 2: GGGAAUGGAUCCACAUCUACGAAUUCGUACCAUAGAACGGUUAUCCGCUCACCGAGAUCGGAAGAGCACACGU
B20: target 1 insC 3' of 10,insC 3' of 9 (mixed)
RNA 1: CACCCGUGCAAAAAUGCAGGGGUCUAAAACUGAGCGGAUAACCUCUCUAUGG
RNA 2: GGGAAUGGAUCCACAUCUACGAAUUCGUACCAUAGAGAGGUUCACUCCGCUCACCGAGAUCGGAAGAGCACACGU
B21: target 1 C6A,A9G (mixed)
RNA 1: CACCCGUGCAAAAAUGCAGGGGUCUAAAACUGAGCGGAUAACCUCUCUAUGG
RNA 2: GGGAAUGGAUCCACAUCUACGAAUUCGUACCAUAGAGAGGUUGUCAGCUCACCGAGAUCGGAAGAGCACACGU
B22: target 1 insC 3' of 11,insC 3' of 11 (mixed)
RNA 1: CACCCGUGCAAAAAUGCAGGGGUCUAAAACUGAGCGGAUAACCUCUCUAUGG
RNA 2: GGGAAUGGAUCCACAUCUACGAAUUCGUACCAUAGAGAGGUCCUAUCCGCUCACCGAGAUCGGAAGAGCACACGU
B23: target 1 G12A,C22A (mixed)
RNA 1: CACCCGUGCAAAAAUGCAGGGGUCUAAAACUGAGCGGAUAACCUCUCUAUGG
RNA 2: GGGAAUGGAUCCACAUCUACGAAUUCGUAACAUAGAGAGAUUAUCCGCUCACCGAGAUCGGAAGAGCACACGU
B24: target 1 insC 3' of 9,insU 3' of 5 (mixed)
RNA 1: CACCCGUGCAAAAAUGCAGGGGUCUAAAACUGAGCGGAUAACCUCUCUAUGG
RNA 2: GGGAAUGGAUCCACAUCUACGAAUUCGUACCAUAGAGAGGUUACUCCGUCUCACCGAGAUCGGAAGAGCACACGU
B25: target 1 C2A,G17A (mixed)
RNA 1: CACCCGUGCAAAAAUGCAGGGGUCUAAAACUGAGCGGAUAACCUCUCUAUGG
RNA 2: GGGAAUGGAUCCACAUCUACGAAUUCGUACCAUAAAGAGGUUAUCCGCUAACCGAGAUCGGAAGAGCACACGU
B26: target 1 U10A,A20C (mixed)
RNA 1: CACCCGUGCAAAAAUGCAGGGGUCUAAAACUGAGCGGAUAACCUCUCUAUGG
RNA 2: GGGAAUGGAUCCACAUCUACGAAUUCGUACCCUAGAGAGGUAAUCCGCUCACCGAGAUCGGAAGAGCACACGU
B27: target 1 C4G,A16C (mixed)
RNA 1: CACCCGUGCAAAAAUGCAGGGGUCUAAAACUGAGCGGAUAACCUCUCUAUGG
RNA 2: GGGAAUGGAUCCACAUCUACGAAUUCGUACCAUAGCGAGGUUAUCCGGUCACCGAGAUCGGAAGAGCACACGU
B28: target 1 insC 3' of 10,insG 3' of 2 (mixed)
RNA 1: CACCCGUGCAAAAAUGCAGGGGUCUAAAACUGAGCGGAUAACCUCUCUAUGG
RNA 2: GGGAAUGGAUCCACAUCUACGAAUUCGUACCAUAGAGAGGUUCAUCCGCUCGACCGAGAUCGGAAGAGCACACGU

Target: T1, EsCas13d, nuclease-dead
Experiment: crRNA (strand 1, pre-loaded); Mg2+; 40 mM Tris-HCl pH 7.5, 150 mM NaCl, 6 mM MgCl2, 1 mM DTT, 0.1% Tween-20, 0.2 mg/ml BSA; 25 C; 10 min per concentration, then washed
Conditions: tags: His6-TwinStrep-SUMO cleaved; N-terminal SNAP kept (SNAP-Surface 488); label: 3' end held by stalled T7 RNA polymerase

Binder | Kd [nM]
B1 | 14.2 ± 2
B2 | 62 ± 8
B3 | 10.3 ± 0.8
B4 | 50 ± 7
B5 | 12.9 ± 1.3
B6 | 12.2 ± 0.8
B7 | 20 ± 0.8
B8 | 40.4 ± 2.6
B9 | 9.1 ± 0.4
B10 | 9.5 ± 1.6
B11 | 73 ± 12
B12 | 35 ± 8
B13 | 4.5 ± 0.4
B14 | 26.2 ± 1.7
B15 | 21.2 ± 2.5
B16 | 31.4 ± 2.2
B17 | 35 ± 9
B18 | 22.4 ± 2.3
B19 | 32 ± 2.8
B20 | 14.9 ± 0.6
B21 | 11.5 ± 0.6
B22 | 35 ± 7
B23 | 13 ± 0.9
B24 | 7.39 ± 0.32
B25 | 47 ± 6
B26 | 48 ± 4
B27 | 39 ± 5
B28 | 24.8 ± 2.1
